Experimental findings from the nanobody polyreactivity screen of Harvey et al. (2022) are described below.

The nature of the data set: yeast display, Sf9 membrane polyspecificity reagent, FACS + sequencing; frameworks hold sequencing errors. In short, it runs like this: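 Nanobodies came from a synthetic yeast display library in Saccharomyces cerevisiae BJ5465, induced with galactose for 36–48 hours and stained for 1 hour at 4 °C with 10% biotinylated, detergent-solubilized Sf9 membrane reagent. Cells were enriched on streptavidin microbeads and then FACS-sorted, with low and high (top ~1%) gates set on anti-HA fluorescence for expression and streptavidin fluorescence for reagent binding. Each polyreactivity label reflects the gate a clone came from. Genes were amplified by colony PCR, sequenced by MiSeq 2 × 250 and filtered by CDR length.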
Regarding “QVQLVESGGGLVQAGGSLRLSCAASGSTFVRYAMGWYRQAPGKERELVAAISKSGGSTYYADSVKGRFTISRDNAKNTVYLQMNSLKPEDTAVYFCNADVYKNSKFRIMGYWGQGTQVTVSS”, the “polyreactivity (PSR sort gate)” value is reported as “low polyreactivity”.

Consider “QVQLVESGGGLVQAGGSLRLSCAASGSTFFANTMGWYRQAPGKERELVAAIRDSGGSTYYADSVKGRFTISRDNSKNTVYLQMNSLKPEDTAVYYCSARYLVYGYPYRFYYWGQGTQVTVSS”, for which the “polyreactivity (PSR sort gate)” value is “high polyreactivity”. For “QVQLVESGGGLVQAGGSLRLSCAASGSIFGAYAMGWYRQAPGKERELVAVISRSGGRTYYADSVKGRFTISRDNAKNTVYLQMNSLKPEDTAVYYCAASYPVPPYGMDYWGQGTQVTVSS”, the “polyreactivity (PSR sort gate)” value is listed as “high polyreactivity”. The result for “QVQLVESGGGLVQAGGSLRLSCAASGFIFRRYAMGWYRQAPGKERELVAGISNRGGRTYYADSVKGRFTISRDNAKNTVYLQMNSLKPEDTAVYYCAADQKSGYRVSRYYVFYDYWGQGTQVTVSS” reads “high polyreactivity”. As for “QVQLQESGGGLVQAGGSLLSCAASGTISYYREMGWYRQAPGKERELVAGIGVGTITYYADSVKGRITISRDNAKNTVYLQMNSLKPEDTAVYYCEAHIDGNDSHAYWGQGTQVTVSS”, the “polyreactivity (PSR sort gate)” value was “low polyreactivity”.

With “QVQLVESGGGLVQAGGSLRLSCAASGRTFRKYAMGGYRHAPGKEREFVASITWSGGSTYYADSVKGRFTISRDNAKNTVYLQMNSLKPEDTAVYFCAAESWFKYVYWGQGTQVTVSS”, the “polyreactivity (PSR sort gate)” value was “low polyreactivity”. The result for “QVQLVESGGGLVQAGGSLRLSCAASGRILTFYGMGWYRQAPGKERELVAAISNGGSTYYADSVKGRFTSSRDNAKNTVYLQMNSLKPEDTAVYYCAKRILTAPRRNSGYDYWGPGTQVTVSS” reads “low polyreactivity”. For the sequence “QVQLEESGGGLVQAGGSLRLTCAASGITFGTYAMGWYRQAPGKEREFVAGYYADSVKGRFTISRDNAKNTVYLQMNSLKPEDTAVYYCAADYLYHDDVDYWGQGTQVTVSS”, the “polyreactivity (PSR sort gate)” value is listed as “low polyreactivity”. For the sequence “QVQLVESGGGLVQAGGSLRLSCAASVRTFGGYAMGLYRQAPGKERELVAAITSDTGTNYADSVKGRFTISRDNAKNTVYLEMNSLKPEDTAVYYCAADTPYSYYLNIYWKGMDYWGQGTQVTVSS”, the “polyreactivity (PSR sort gate)” value is recorded as “low polyreactivity”. Consider “KVQLVESGAGLVQAGGSLRFSCAASGSIFIVYAMGWYRPAPGKERELVADITNGGDTNYADSVKGRFTISRDNAKNTVYLQMNSLKPEDTAVYYCAKYLWSYRVRTNVWRSYYWGQGTQVSVSS”, for which the “polyreactivity (PSR sort gate)” value is “high polyreactivity”. The result for “QVQLVESGGGLVQAGGSLRLSCAASGSIFGDYAMGWYRQAPGKERELVAAIRYIGVSTYYADSVKGRFTISRDNAKNTVYLQMNSLKPEDTAVYYCAAEVYYEYYYWRYYWGQGTQVTVSS” reads “high polyreactivity”; that for “QVQLVESGGGLVQAGGSLRLSCAASGSTFRNYSMGWYRQAPGKERELVAAISGSGGRTNYADSVKGRFTISRDNAKNTVYLQMNSLKPEDTAVYYCNADGGPGYPRAYDYWGQGTQVTVSS”, “low polyreactivity”. For the sequence “QVQLVESGGGLVQAGGSLRLSCAASGRTFYYNAMGWYRQAPGKERELVAAISWSGGSTYYADSVKGRFTISRDNAKNTVYLQMNSLKPEDTAVYYCAAGAYSYRKYRSYDYWGQGTQVTVSS”, the “polyreactivity (PSR sort gate)” value is “high polyreactivity”.

On to “QVQLVESGGGLVQAGGSLRLSCAASGSTFGINTMGWYRQAPGKERELVASINRGGTTNYADSVKGRFTISRDNAKNTVYLQMNSLKPEDTAVYYCNARYYVTRLSRFRYGYWGQGTQVTVSS”, for which the “polyreactivity (PSR sort gate)” value is given as “high polyreactivity”. The result for “QVQIVESGGGLVQAGGSLRLSCASSGRIFHRYAMGWYRQAPGKERELVAAISYSTARTYYADSVKGRFTISRDNAKNTVYLQMNSLKPEDTAVYYCAAKDERRSFGMGYWGQGTQVTVSS” reads “high polyreactivity”; that for “QVQLVESGGGLVQAGGSLRLSCAASGLTFRLNAMGWYRQAPGKERELVAAITAIGDRTYYADSVKGRFTISRDNAKNTVYLQMKSLKQEDTAVYYCNVTPRRAQVRIGNYWGQGTQVTVSS”, “high polyreactivity”.
